Data: paper PMC10359280, “A maize epimerase modulates cell wall synthesis and glycosylation during stomatal morphogenesis” (Nature Communications, 2023)

How the values were obtained:
BZU3 [1] = molecular target: T1, BZU3 (Zea mays, UniProt C0HI30); assay: X-ray crystal structure, […] Å, soaked with […] ligand; type: binding; conditions: ternary complex with NAD+, crystals at pH 5.0
T1 construct: gene ZEAMMB73_Zm00001d029151; residues 1-189 NAD domain, 190-355 sugar domain; homo-dimer
T1 sequence (C0HI30 1-355): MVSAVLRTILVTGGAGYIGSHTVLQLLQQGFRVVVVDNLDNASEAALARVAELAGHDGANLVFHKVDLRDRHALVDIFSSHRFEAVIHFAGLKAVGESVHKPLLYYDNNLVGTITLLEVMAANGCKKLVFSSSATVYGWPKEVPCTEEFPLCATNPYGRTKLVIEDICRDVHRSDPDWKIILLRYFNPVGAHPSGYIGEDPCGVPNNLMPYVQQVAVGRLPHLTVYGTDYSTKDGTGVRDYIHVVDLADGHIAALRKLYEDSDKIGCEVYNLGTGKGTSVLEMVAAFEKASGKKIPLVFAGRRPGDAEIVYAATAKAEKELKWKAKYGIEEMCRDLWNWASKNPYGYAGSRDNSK

BZU3 [2] = molecular target: T1, BZU3; assay: X-ray crystal structure; type: binding; conditions: no ligand soak for 7XPP; with UDP-Glc 7XPO; with UDP-GlcNAc 7XPQ
[3] = molecular target: BZU3 (maize UDP-glucose 4-epimerase), recombinant 6×His-BZU3 (maize); assay: crystal structure; BZU3 (~5.0 mg/ml) crystallised by sitting-drop vapor diffusion, 100 mM sodium malonate pH 5.0, 12~16% PEG3350; apo form and crystals soaked with 5 mM UDP-Glc or UDP-GlcNAc
[4] = substrate: O=c1ccn([C@@H]2O[C@H](COP(=O)(O)OP(=O)(O)O[C@H]3O[C@H](CO)[C@H](O)[C@H](O)[C@H]3O)[C@@H](O)[C@H]2O)c(=O)[nH]1; assay: HPLC of UDP-Glc/UDP-Gal, Michaelis-Menten; type: biochemical, Zea mays; conditions: 10 mM Tris-HCl pH 8.0, 30 °C, 25 nM enzyme, 1 min
[5] = substrate: O=c1ccn([C@@H]2O[C@H](CO[P@@](=O)(O)O[P@@](=O)(O)O[C@H]3O[C@H](CO)[C@@H](O)[C@H](O)[C@H]3O)[C@@H](O)[C@H]2O)c(=O)[nH]1; assay: HPLC of UDP-Glc/UDP-Gal, Michaelis-Menten; type: biochemical, Zea mays; conditions: 10 mM Tris-HCl pH 8.0, 30 °C, 25 nM enzyme, 1 min
[6] = substrate: CC(=O)N[C@H]1[C@@H](OP(=O)(O)OP(=O)(O)OC[C@H]2O[C@@H](n3ccc(=O)[nH]c3=O)[C@H](O)[C@@H]2O)O[C@H](CO)[C@H](O)[C@@H]1O; assay: HPLC of UDP-GlcNAc/UDP-GalNAc, Michaelis-Menten; type: biochemical, Zea mays; conditions: similar protocol (10 mM Tris-HCl pH 8.0, 30 °C)
[7] = substrate: CC(=O)N[C@H]1[C@@H](OP(=O)(O)OP(=O)(O)OC[C@H]2O[C@@H](n3ccc(=O)[nH]c3=O)[C@H](O)[C@@H]2O)O[C@H](CO)[C@@H](O)[C@@H]1O; assay: HPLC of UDP-GlcNAc/UDP-GalNAc, Michaelis-Menten; type: biochemical, Zea mays; conditions: similar protocol (10 mM Tris-HCl pH 8.0, 30 °C)

CC(=O)N[C@H]1[C@@H](OP(=O)(O)OP(=O)(O)OC[C@H]2O[C@@H](n3ccc(=O)[nH]c3=O)[C@H](O)[C@@H]2O)O[C@H](CO)[C@@H](O)[C@@H]1O [UDP-GlcNAc]
X-ray crystal structure, 2.15 Å, soaked with 5 mM ligand (BZU3 [1]): The structure of BZU3 in complex with NAD^+/UDP-GlcNAc was similar to that of BZU3/NAD^+/UDP-Glc

NC(=O)c1ccc[n+]([C@@H]2O[C@H](COP(=O)(O)OP(=O)(O)OC[C@H]3O[C@@H](n4cnc5c(N)ncnc54)[C@H](O)[C@@H]3O)[C@@H](O)[C@H]2O)c1 [NAD^+]
X-ray crystal structure (BZU3 [2]): both Y157 and K161 directly interact with the ribose moiety of NAD^+

BZU3 (maize UDP-glucose 4-epimerase), recombinant 6×His-BZU3 (enzyme)
stoichiometry N [3]: 2

B1: BZU3 (Zea mays) (protein)
chain: MVSAVLRTILVTGGAGYIGSHTVLQLLQQGFRVVVVDNLDNASEAALARVAELAGHDGANLVFHKVDLRDRHALVDIFSSHRFEAVIHFAGLKAVGESVHKPLLYYDNNLVGTITLLEVMAANGCKKLVFSSSATVYGWPKEVPCTEEFPLCATNPYGRTKLVIEDICRDVHRSDPDWKIILLRYFNPVGAHPSGYIGEDPCGVPNNLMPYVQQVAVGRLPHLTVYGTDYSTKDGTGVRDYIHVVDLADGHIAALRKLYEDSDKIGCEVYNLGTGKGTSVLEMVAAFEKASGKKIPLVFAGRRPGDAEIVYAATAKAEKELKWKAKYGIEEMCRDLWNWASKNPYGYAGSRDNSK
notes: residues 1-189 NAD domain, 190-355 sugar domain; homo-dimer
Km [4]: 1450 µM
Km [5]: 2670 µM
Km [6]: 500 µM
Km [7]: 400 µM
